Assay results from patent US7034007.

How the values were obtained:
[1] = molecular target: B2 bradykinin receptor (rabbit airway smooth muscle membranes) (rabbit) (UniProt Q28642); experiment: radioligand binding, airway smooth muscle membranes of saline-treated control allergic rabbits
[2] = molecular target: B2 bradykinin receptor (rabbit airway smooth muscle membranes) (rabbit) (UniProt Q28642); experiment: radioligand binding, airway smooth muscle membranes of allergic rabbits treated with B2MM mismatch oligo, 2 mg total
[3] = molecular target: B2 bradykinin receptor (rabbit airway smooth muscle membranes) (rabbit) (UniProt Q28642); experiment: radioligand binding, airway smooth muscle membranes of allergic rabbits treated with B2MM mismatch oligo, 20 mg total
[4] = molecular target: B2 bradykinin receptor (rabbit airway smooth muscle membranes) (rabbit) (UniProt Q28642); experiment: radioligand binding, airway smooth muscle membranes of allergic rabbits treated with B2MM mismatch oligo, 0.2 mg total
[5] = molecular target: B2 bradykinin receptor (rabbit airway smooth muscle membranes) (rabbit) (UniProt Q28642); experiment: radioligand binding, airway smooth muscle membranes of allergic rabbits treated with A1MM1 mismatch control oligo, 2 mg total
[6] = molecular target: B2 bradykinin receptor (rabbit airway smooth muscle membranes) (rabbit) (UniProt Q28642); experiment: radioligand binding, airway smooth muscle membranes of allergic rabbits treated with A1MM1 mismatch control oligo, 20 mg total
[7] = molecular target: B2 bradykinin receptor (rabbit airway smooth muscle membranes) (rabbit) (UniProt Q28642); experiment: radioligand binding, airway smooth muscle membranes of allergic rabbits treated with adenosine A1 receptor antisense oligo, 2 mg total
[8] = molecular target: B2 bradykinin receptor (rabbit airway smooth muscle membranes) (rabbit) (UniProt Q28642); experiment: radioligand binding, airway smooth muscle membranes of allergic rabbits treated with adenosine A1 receptor antisense oligo, 20 mg total
[9] = molecular target: B2 bradykinin receptor (rabbit airway smooth muscle membranes) (rabbit) (UniProt Q28642); experiment: radioligand binding, airway smooth muscle membranes of allergic rabbits treated with B2A bradykinin receptor antisense oligo, 2 mg total
[10] = molecular target: B2 bradykinin receptor (rabbit airway smooth muscle membranes) (rabbit) (UniProt Q28642); experiment: radioligand binding, airway smooth muscle membranes of allergic rabbits treated with adenosine A1 receptor antisense oligo, 0.2 mg total
[11] = molecular target: B2 bradykinin receptor (rabbit airway smooth muscle membranes) (rabbit) (UniProt Q28642); experiment: radioligand binding, airway smooth muscle membranes of allergic rabbits treated with B2A bradykinin receptor antisense oligo, 20 mg total
[12] = molecular target: B2 bradykinin receptor (rabbit airway smooth muscle membranes) (rabbit) (UniProt Q28642); experiment: radioligand binding, airway smooth muscle membranes of allergic rabbits treated with B2A bradykinin receptor antisense oligo, 0.2 mg total

Sequence of UniProt Q28642 (Q28642 whole entry): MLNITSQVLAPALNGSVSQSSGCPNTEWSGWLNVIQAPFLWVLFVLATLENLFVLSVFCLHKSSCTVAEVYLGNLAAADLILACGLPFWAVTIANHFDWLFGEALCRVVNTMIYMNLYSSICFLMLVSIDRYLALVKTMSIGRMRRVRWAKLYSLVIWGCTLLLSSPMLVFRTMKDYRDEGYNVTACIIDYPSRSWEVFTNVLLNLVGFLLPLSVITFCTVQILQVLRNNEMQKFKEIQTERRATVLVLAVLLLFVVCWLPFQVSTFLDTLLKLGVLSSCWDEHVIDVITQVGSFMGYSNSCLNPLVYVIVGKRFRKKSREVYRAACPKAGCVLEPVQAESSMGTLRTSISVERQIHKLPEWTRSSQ

- Bmax [1]: 14.2 fmol
- Kd [1]: 0.39 nM
- Bmax [2]: 14.8 fmol
- Kd [2]: 0.37 nM
- Bmax [3]: 14 fmol
- Kd [3]: 0.41 nM
- Bmax [4]: 15.1 fmol
- Kd [4]: 0.36 nM
- Bmax [5]: 14.6 fmol
- Kd [5]: 0.38 nM
- Bmax [6]: 14 fmol
- Kd [6]: 0.35 nM
- Bmax [7]: 15.5 fmol
- Kd [7]: 0.41 nM
- Bmax [8]: 14.8 fmol
- Kd [8]: 0.39 nM
- Bmax [9]: 11.9 fmol
- Kd [9]: 0.34 nM
- Bmax [10]: 15 fmol
- Kd [10]: 0.34 nM
- Bmax [11]: 8.7 fmol
- Kd [11]: 0.38 nM
- Bmax [12]: 15.1 fmol
- Kd [12]: 0.35 nM
Substance: [3H]NPC 17731 (peptide)
